Assay results: the supplement of paper PMC9170038

System: MS2 coat protein
Assay: apparent KD of MS2 coat protein; designed switch direction (-1 OFF switch, 1 ON switch): 1; higher = weaker reporter binding
Outline: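 Three titration conditions were used: no input, 200 uM small-molecule ligand, and an oligonucleotide input. In each, SNAP-549-labelled MS2 coat protein was raised from 0.7 or 1.5 nM, doubling, to 3 µM over designed RNA switches transcribed on Illumina chips by stalled E. coli RNA polymerase. Curve fits of normalised cluster fluorescence gave values whose per-design median over clusters is the apparent KD.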

[1] = input ligand: microRNA oligo, concentration not stated
[2] = Eterna round: R95, input ligand: FMN 200 uM
[3] = Eterna round: R95, input ligand: microRNA oligo, concentration not stated
[4] = Eterna round: R95, input ligand: none

Sequence | apparent KD of MS2 coat protein (input ligand: FMN 200 uM) | apparent KD of MS2 coat protein [1] | apparent KD of MS2 coat protein (input ligand: none) | apparent KD of MS2 coat protein [2] | apparent KD of MS2 coat protein [3] | apparent KD of MS2 coat protein [4]
AUUAACUUGAGAGGAUAUGUAGAGGAUCACCCUACAGAAGGCUCGUUAGAGAGGAUAUGUAGAGGAUCACCCUACAGAAGGCUC [pwkr ssNG DX.9] (Eterna round: R96, puzzle: Same State NG 1) | 95.1 nM | 82.4 nM | 88.7 nM |  |  | 
UCUUGGUUUUUGCUCGUUUUUUGUGUUGAACAUGAGGAUCACCCAUGUAUUGUACGGUCCGGUUUAGUAGUGGUCCA [JMF 44] (Eterna round: R96, puzzle: Sensor for hsa-mir-208a) | 181 nM | 81.8 nM | 173 nM |  |  | 
CUUUUUAGUGCAGGAUAUGAUCAACAUGAGGAUCACCCAUGUGGCGUUGUGAGUAGGGAGAGAGAUCAGAAGGGCGUCUCCGCG [SS-NG2-LRO12] (Eterna round: R96, puzzle: Same State NG 2) | 46.4 nM | 62.3 nM | 42.2 nM |  |  | 
GGAGAGAGAGCGCAGGAUAUUUGAGGAGAAACAUGAGGAUCACCCAUGUGAGAGAGAGAGGAGAAAGAGAAGGGUGAGAGAGAGG [Altered State 2-15 - Jieux - Same State 2] (puzzle: Same State 2) |  |  |  | 41.9 nM | 52.9 nM | 57.8 nM
AAUUAAGAUCAAGGAUAUCACGUCGAAUAGACGUGAGAAGGUGAUCCAUACAUGAGGAUCACCCAUGUAUAACAUGAAUUAAUU [SSNG1/8-B1] (Eterna round: R96, puzzle: Same State NG 1) |  | 607 nM |  |  |  | 
UUUACAUUACGAGGAUAUCAAUUAUUUCAUGUAUGAGAAGGCGUUAUUUUUACUACCUUACAUGAGGAUCACCCAUGUUUCAUU [JR_SSNG1_Sub041] (Eterna round: R96, puzzle: Same State NG 1) |  | 40.3 nM |  |  |  | 
GCUGCAAUUAACGCCUACAUGAGGAUCACCCAUGUAUGUAGGCAGGAUAUCGUUUGCAAAGCAAACGAGAAGGGCCGUAGUAGC [Mat - Same State NG 3 - JL Mod - D34] (Eterna round: R96, puzzle: Same State NG 3) | 28.9 nM | 48.9 nM | 73.8 nM |  |  | 
GUGGUCAGACAUGAGGAUCACCCAUGUGGAAUAAAUAAGGAACAGGAUAUGGAAUAUAGGAUAUACCAGAAGGGUUGGUUGGUG (Eterna round: R96, puzzle: Same State NG 3) |  | 62.3 nM |  |  |  | 
AUUAACAUGAGGAUCACCCAUGUUACGAGCUUAGCUCGGACACAGGAUAUCCGGUCCUAGAGACCGGAGAAGGGUGCCUUAUAA [Zara MOD4] (Eterna round: R96, puzzle: Same State NG 3) | 742 nM | 123 nM | 265 nM |  |  | 
AAUUUAAUACAUGAGGAUCACCCAUGUAAAUUAAUUAAGAUCUAGGAUAUCAGCUCGUUUAGAGCUGAGAAGGAGAUCACAUGU [SSNG3/19-B3] (Eterna round: R96, puzzle: Same State NG 3) |  | 12.5 nM |  |  |  | 
GGAGCCGGCACCGAGGAUAUUCAUAUUAAAACAUGAGGAUCACCCAUGUGGGCCAGAAGGCCUUGGGAGAAGGCGGAUCGGCUCG [Xeonanis - 1] (puzzle: Same State 2) |  |  |  | 15.6 nM | 216 nM | 425 nM
AUACCAUCGGGAGGAUAUGGCACCUUAUUGGUGCCAGAAGGUCCAACAUGAGGAUCACCCAUGUGGGAGUGGUCUAAUGACCAC [Fiskers NG1ss - 28] (Eterna round: R96, puzzle: Same State NG 1) | 121 nM | 120 nM | 171 nM |  |  | 
AUUUAACAAGCUUUUUGCUCGUCUUAUAAACAUGAGGAUCACCCAUGUAAUAGCGUGAGAGUAAAUAUAUAAAUAAU [JMF 85] (puzzle: Sensor for hsa-mir-208a) |  |  |  | 13.8 nM | 42.2 nM | 11.9 nM
AAAGAAAACAUAGGAUAUGUAACAUGAGGAUCACCCAUGUAUACCUCGUAAGAGAUGAUGGAUGGACAGAAGGAUGGUCUCAGG [Default title] (Eterna round: R96, puzzle: Same State NG 2) | 134 nM | 73.7 nM | 80.6 nM |  |  | 
AUAAGGCAAGCUUUUUUCUCGUAAUGUAAACAUGAGGAUCACCCAUGUGCCCAUCCUGGAUCUUUGGAUCGCAGAAC [Usbexe] (puzzle: Sensor for hsa-mir-208a) |  |  |  | 34.6 nM | 25.9 nM | 40.7 nM
GUGCAACCGUGUGAGGAUAUCGGUGGUAAAACAUGAGGAUCACCCAUGUCCGAAGCUCGGAUCUCCGAGAAGGCGCACAGUUGCA [Same State 2 - Mod of Erisin v.2] (puzzle: Same State 2) |  |  |  | 27.8 nM | 290 nM | 470 nM

Sequence | apparent KD of MS2 coat protein (input ligand: FMN 200 uM) | apparent KD of MS2 coat protein [1] | apparent KD of MS2 coat protein (input ligand: none) | apparent KD of MS2 coat protein [2] | apparent KD of MS2 coat protein [3] | apparent KD of MS2 coat protein [4]
UUAAUUAAUUAAUUAUACAUGAGGAUCACCCAUGUAAGUGAUCAGGAUAUCAGCUCGAUUAGAGCUGAGAAGGGAUCCAUGUAA [SSNG3/14-A2] (Eterna round: R96, puzzle: Same State NG 3) |  | 78 nM |  |  |  | 
ACAUGAGACAUAGGAUAUGUUGUACCUACAUGUGACAUGAGGAUCACCCAUGUGGUAAGUAUGAGGCAGAAGGAUGAGAUAUGU [Equivalence 40 - Jieux - Same State NG 2] (Eterna round: R96, puzzle: Same State NG 2) | 50.3 nM | 37 nM | 74.1 nM |  |  | 
GAGUGAUGGGUUAGUAACUGCUGGGAAGGACAUGAGGAUCACCCAUGUGAGUAACGAGCUUGUGCUCGUCUUAUAAG [JR_SHM208A_Sub022] (puzzle: Sensor for hsa-mir-208a) |  |  |  | 388 nM | 192 nM | 425 nM
GGUCCAGCCUGAGCUGGACCACAGCAUGUACAUGAGGAUCACCCAUGUCAUGUACAUGCUUUUUGUUUGUCUUAAAA [Sensorship 11 - Jieux - Sensor for hsa-mir-208a] (puzzle: Sensor for hsa-mir-208a) |  |  |  | 72.2 nM | 32.7 nM | 47.3 nM
AAUUAUUAACAUGAGGAUCACCCAUGUAUCAUGAUUACUAUUAUUAGUAUCAUGAAUAGGGUUUUUGCUCGUCUUAU [ben_bell_2] (puzzle: Sensor for hsa-mir-208a version 2) |  |  |  | 85.9 nM | 26.2 nM | 53.5 nM
AGUAGUGUAACAUGAGGAUCACCCAUGUAUGUAUAUGUAACCUAGGAUAUGGAGGUUAUGUUUGACCAGAAGGAGGAUUGUUUA [JR_SSNG3_Sub042] (Eterna round: R96, puzzle: Same State NG 3) | 29.7 nM | 28.7 nM | 33.7 nM |  |  | 
UGUUAGUAGACAGGAUAUUGAAUGUUAAGUAUUAACAUGAGGAUCACCCAUGUAUUUGAUUGGUACAAGAAGGGUCAUGUUUGU [JR_SSNG2_Sub014] (Eterna round: R96, puzzle: Same State NG 2) |  | 290 nM |  |  |  | 
AAAAUGGUAUGUUACAUGAGGAUCACCCAUGUACUCUAAUCUGAGGAUAUGGGAAUGAAGAAGAACCAGAAGGCAGACAUCCAA [AK SSNG3-V2-23] (Eterna round: R96, puzzle: Same State NG 3) | 258 nM | 91.8 nM | 104 nM |  |  | 
UGGUACAUGGGAGGAUAUGGGCAUGAGACAUGAGGAUCACCCAUGUAUUAUAAGCCGAAAGGCAUCUAGAAGGCCCAUGUACCU [JL SSNG1 3.84] (Eterna round: R96, puzzle: Same State NG 2) | 14.2 nM | 68.3 nM | 92.4 nM |  |  | 
GUAGCAUACCGAGGAUAUUCAUAUUAACAUGAGGAUCACCCAUGUUUAGGCCGAUUACGGCCUUGGGAGAAGGCGGAAUGCUAC [Xeonanis - 20 Mod22] (Eterna round: R96, puzzle: Same State NG 2) | 10.9 nM | 14.9 nM | 25.1 nM |  |  | 
GGGAGAGGCGCAGGAUAUGGUGAGGAUCACCCACUAGAAGGGUGCACAUGAGAAUCGGACAUGAGGAUCACCCAUGUCCGGCGC (Eterna round: R96, puzzle: Same State NG 1) | 375 nM | 143 nM | 445 nM |  |  | 
GAGAGAGGGUGAGGAUAUUUGGUGAUAAUGAUGGGAGAAGGCACAGACAUGAGGAUCACCCAUGUGGGAAUAAUCCAGAGAGAG [Parity 11 - Jieux - Same State NG 1] (Eterna round: R96, puzzle: Same State NG 1) | 582 nM | 182 nM | 410 nM |  |  | 
AACAUUCUAUCUCAGGAUAUCAUGUCAAAGACAUGAGGAUCACCCAUGUACCAGGAAACUGGUUAUGAGAAGGGAGAUAGAAUGA [Mat - Same State 2 - Mod - D45] (Eterna round: R96, puzzle: Same State 2) | 267 nM | 517 nM | 1080 nM |  |  | 
AAACAGCCGAACGGAGGGCCACAUGAGGAUCACCCAUGUACAUAGGAUAUCAUGCCAACGAGGCAUGAGAAGGGUGAUUAAAAC [Usinvema] (Eterna round: R96, puzzle: Same State NG 3) | 11.7 nM | 350 nM | 359 nM |  |  | 
GCUCGACGUAUUGUCUACAUGAGGAUCACCCAUGUAGGUGCGGAGGAUAUUUACGUGUUUCAUGUAGAGAAGGUCGUGUCGAGC [SameState NG3 #94] (Eterna round: R96, puzzle: Same State NG 3) | 27.8 nM | 166 nM | 185 nM |  |  | 
